Results from PMC7883056 (The EMBO Journal, 2021).

Biological target: T1, N-GST-tagged Ythdf (full length) (Drosophila melanogaster, UniProt Q9VBZ5 1-700)
T1 sequence: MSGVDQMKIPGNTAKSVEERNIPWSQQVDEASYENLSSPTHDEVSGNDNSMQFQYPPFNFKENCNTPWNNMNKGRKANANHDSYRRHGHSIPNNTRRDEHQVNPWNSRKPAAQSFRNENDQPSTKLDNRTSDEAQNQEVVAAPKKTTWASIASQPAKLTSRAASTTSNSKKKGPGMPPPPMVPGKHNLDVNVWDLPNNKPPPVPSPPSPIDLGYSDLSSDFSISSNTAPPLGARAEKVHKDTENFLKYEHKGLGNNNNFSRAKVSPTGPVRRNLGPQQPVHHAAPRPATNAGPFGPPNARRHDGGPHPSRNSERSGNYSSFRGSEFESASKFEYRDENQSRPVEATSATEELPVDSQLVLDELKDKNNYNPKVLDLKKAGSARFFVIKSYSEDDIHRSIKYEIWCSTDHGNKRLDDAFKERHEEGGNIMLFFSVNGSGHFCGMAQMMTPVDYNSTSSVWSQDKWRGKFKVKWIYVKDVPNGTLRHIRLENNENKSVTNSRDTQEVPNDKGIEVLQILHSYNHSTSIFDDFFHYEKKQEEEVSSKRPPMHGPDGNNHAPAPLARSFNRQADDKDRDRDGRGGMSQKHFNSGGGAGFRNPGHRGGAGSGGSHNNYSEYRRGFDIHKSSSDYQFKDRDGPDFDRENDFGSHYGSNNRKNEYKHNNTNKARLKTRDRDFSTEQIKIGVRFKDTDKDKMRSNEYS
Test: pull-down

B1: N-His6-tagged NT-Fmr1 (220-684) (domain or fragment)
chain: not shown
**Q.** Does B1 bind?
**A.** Result: binds
